Substitutions are numbered along the chain they refer to. Values belong to the binder of their own block, whether it stands above or below them.
Key:
[1] = biological target: T1, cell surface CD123 on EOL-1 cells (CD123+) (human, UniProt P26951 19-378); assay: flow cytometry on EOL-1 (CD123+) cells, anti-human IgG Alexa Fluor 488; Example 16 calls the fitted value KD
T1 construct: EOL-1 cells, DSMZ ACC 386
Experimental: 100,000 EOL-1 cells (DSMZ ACC 386) were seeded per well in a 96 well deep well plate. IMGN632 and a pH engineered antibody variant were serially diluted at a 1:3 dilution in ice cold FC buffer (phosphate buffered saline (PBS), pH 7.4+2 mM ethylenediaminetetraacetic acid (EDTA)+2% (v/v) HI FBS). The plates were spun at 2,000 RPM for 2 minuets, the supernatant was removed, and 100 μL of diluted antibody was added to each well with final concentration ranging from 60 nM to 1 pM and incubated for 2 hours at 4° C. Post incubation, the cells were spun at 2000 rpm for 2 min and supernatant was discarded. Cells were washed twice with 500 μL of ice-cold FC buffer and resuspended with […]. The cells were then transferred from the deep well plate to 96 well round bottom plate, spun at 2000 rpm for 2 min and incubated with 100 μL of 10 μg/mL Alexa Fluor 488 conjugated goat anti-human IgG secondary antibody (ThermoFisher Scientific, A11013) for 30 min. Post incubation, cells were washed with FC buffer and resuspended in 100 μL of FC buffer to read on a BD Accuri C6 flow cytometer. Binding affinity was measured as a dissociation constant KD by GraphPad Prism assuming Michaelis-Menten binding kinetics.

[2] = biological target: T2, CD123 Protein, His Tag, Acro Biosciences Cat. No. ILA-H52H6 (Homo sapiens (Human), UniProt P26951 19-305); assay: BLI, IgG on anti-human Fc sensor, pH 7.4 and pH 5.4
T2 construct: Bought protein; not shown: His tag
T2 sequence: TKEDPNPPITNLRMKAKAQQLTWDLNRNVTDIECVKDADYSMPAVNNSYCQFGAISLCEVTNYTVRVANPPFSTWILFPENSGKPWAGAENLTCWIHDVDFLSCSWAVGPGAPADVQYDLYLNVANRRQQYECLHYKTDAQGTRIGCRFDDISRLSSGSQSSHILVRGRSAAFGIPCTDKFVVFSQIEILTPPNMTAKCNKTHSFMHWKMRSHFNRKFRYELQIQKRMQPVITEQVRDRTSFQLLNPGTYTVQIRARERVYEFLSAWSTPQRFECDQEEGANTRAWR

[3] = biological target: T3, CD123 protein (R&D Systems Catalog No. 301-R3-025/CF) (Homo sapiens (Human), UniProt P26951 19-305); assay: as above
T3 construct: Bought protein
T3 sequence: T2 sequence

[4] = biological target: T2, CD123 Protein, His Tag, Acro …; assay: BLI, IgG on anti-human Fc sensor, 50 nM CD123, pH 7.4 and pH 5.4
In short: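 Single His/Ala heavy-chain CDR variants were expressed in Expi293 and captured from diluted supernatant on anti-human Fc sensors. By BLI, association with 50 nM His-tagged CD123 ran for 120 s and dissociation for 300–600 s, all in PBST pH 7.4. The full cycle was repeated separately in PBST pH 5.4.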

binding result [2]: no binding (tested: 50 nM)
B3: MYT1281 (antibody, V domains shown)
VH: QVQLVQSGAEVKKPGASVKVSCKASGYIFTSSIMHWVRQAPGQGLEWIGYIKPYNDGTKYNEKFKGRATLTSDRSTSTAYMELSSLRSEDTAVYYCARHGGNDYYDTMDYWGQGTLVTVSS
VL: DIQMTQSPSSLSASVGDRVTITCRASQDINSYLSWFQQKPGKAPKTLIYRVNRLVDGVPSRFSGSGSGNDYTLTISSLQPEDFATYYCLQYDAFPYTFGQGTKVEIK
notes: IgG

binding result [3]: no binding (tested: 50 nM)
B4: MYT5476 (antibody, V domains shown)
VH: EVQLLESGGGLVQPGGSLRLSCAVSDYSITSGYYWNWIRQAPGKKLEWMGYISYDGSNNYNPSLKNGRITISRDTSKNTFYLQMNSLRAEDTAVYYCARGEHFYFDSWGQGTLVTVSS
VL: EIVLTQSPGTLSLSPGERATLSCKSSQSLFFGSTQKNYLAWYQQKPGQAPRLLIYWASTRESGIPDRFSGSGSGTDFTLTISRLEPEDFAVYYCQQYYNYPWTFGQGTKLEIK
notes: IgG

binding result [3]: no binding (tested: 50 nM)
B5: MYT5495 (antibody, V domains shown)
VH: B4 VH with H102G
VL: B4 VL with A40H
notes: IgG

binding result [2]: no binding (tested: 50 nM)
B6: MYT1417 (antibody, V domains shown)
VH: QVQLVQSGAEVKKPGASVKMSCKASGYTHTDYYMKWVKQAPGQGLEWIGDIIPSNGATFYNQKFKGKATLTVDRSISTAYMHLNRLRSDDTAVYYCTRSHLLRASWFAYWGQGTLVTVSS
VL: DFVMTQSPDSLAVSLGERATINCKSSQSLLNSGNQKNYLTWYLQKPGQPPKLLIYWASTRESGVPDRFSGSGSGTDFTLTISSLQAEDVAVYYCQNDYSYPYTFGQGTKLEIK
notes: IgG

binding result [2]: no binding (tested: 50 nM)
B7: MYT1424 (antibody, V domains shown)
VH: B6 VH with H29F, D50H
VL: B6 VL
notes: IgG

binding result [2]: no binding (tested: 50 nM)
B14: MYT1441 (antibody, V domains shown)
VH: B6 VH with H29F, T97H
VL: B6 VL
notes: IgG

binding result [2]: no binding (tested: 50 nM)
B15: MYT1444 (antibody, V domains shown)
VH: B6 VH with H29F, H100A
VL: B6 VL
notes: IgG

binding result [2]: no binding (tested: 50 nM)
B17: MYT1447 (antibody, V domains shown)
VH: B6 VH with H29F, R103H
VL: B6 VL
notes: IgG

binding result [2]: no binding (tested: 50 nM)
B23: MYT1427 (antibody, V domains shown)
VH: B6 VH with H29F, P53H
VL: B6 VL
notes: IgG

binding result [2]: no binding (tested: 50 nM)
B25: MYT1425 (antibody, V domains shown)
VH: B6 VH with H29F, I51H
VL: B6 VL
notes: IgG

binding result [2]: no binding (tested: 50 nM)
B26: MYT1450 (antibody, V domains shown)
VH: B6 VH with H29F, W106H
VL: B6 VL
notes: IgG

binding result [2]: no binding (tested: 50 nM)
B28: MYT1443 (antibody, V domains shown)
VH: B6 VH with H29F, S99H
VL: B6 VL
notes: IgG

The next lines start with the binder.

B1: IMGN632 (antibody, V domains shown)
VH: B3 VH with H99E
VL: B3 VL
notes: IgG from Expi293 supernatant; also called MYT1251; starting ABPC
IC50 [1]: 0.034 nM

B2: MYT2758 (antibody, V domains shown)
VH: B3 VH with H35A, H99E, T107H
VL: B3 VL
notes: IgG
IC50 [1]: 0.051 nM

B8: MYT1449 (antibody, V domains shown)
VH: B6 VH with H29F, S105H
VL: B6 VL
notes: IgG
binding result [4]: binds

B9: MYT1435 (antibody, V domains shown)
VH: B6 VH with H29F, N61H
VL: B6 VL
notes: IgG
binding result [4]: binds

B10: MYT1442 (antibody, V domains shown)
VH: B6 VH with H29F, R98H
VL: B6 VL
notes: IgG
binding result [4]: binds

B11: MYT1438 (antibody, V domains shown)
VH: B6 VH with H29F, F64H
VL: B6 VL
notes: IgG
binding result [4]: binds

B12: MYT1436 (antibody, V domains shown)
VH: B6 VH with H29F, Q62H
VL: B6 VL
notes: IgG
binding result [4]: binds

B13: MYT1448 (antibody, V domains shown)
VH: B6 VH with H29F, A104H
VL: B6 VL
notes: IgG
binding result [4]: binds

B16: MYT1440 (antibody, V domains shown)
VH: B6 VH with H29F, G66H
VL: B6 VL
notes: IgG
binding result [4]: binds

B18: MYT1452 (antibody, V domains shown)
VH: B6 VH with H29F, A108H
VL: B6 VL
notes: IgG
binding result [4]: binds

B19: MYT1437 (antibody, V domains shown)
VH: B6 VH with H29F, K63H
VL: B6 VL
notes: IgG
binding result [4]: binds

B20: MYT1453 (antibody, V domains shown)
VH: B6 VH with H29F, Y109H
VL: B6 VL
notes: IgG
binding result [4]: binds

B21: MYT1446 (antibody, V domains shown)
VH: B6 VH with H29F, L102H
VL: B6 VL
notes: IgG
binding result [4]: binds

B22: MYT1451 (antibody, V domains shown)
VH: B6 VH with H29F, F107H
VL: B6 VL
notes: IgG
binding result [4]: binds

B24: MYT1445 (antibody, V domains shown)
VH: B6 VH with H29F, L101H
VL: B6 VL
notes: IgG
binding result [4]: binds

B27: MYT1439 (antibody, V domains shown)
VH: B6 VH with H29F, K65H
VL: B6 VL
notes: IgG
binding result [4]: binds
